The subject of this series is TALEN-AAVS1 (goat AAVS1 TALEN pair; left and right monomers not described separately) (synthetic construct). Nature of the series: cell_activity. As to conditions: cleavage/targeting efficiency in transfected goat fibroblasts; 6 of 8 puromycin-resistant clones correctly targeted with donor; half-sites highlighted only in ….

Turning to “TCCGGCTGTCTCCCTACCAGGGACACGGCAGGGCGGTGGTCAGCTCTCCTGGA (double strand) [goat AAVS1 TALEN target]”, the activity was 2%.

Values taken from patent US20150033370.
